Laboratory results as given in patent publication US20030143729A1, “DNA encoding taurine and GABA transporters and uses thereof” (Synaptic Pharmaceutical Corporation, priority 1992, published 2003).
“And” between values parts separate entries of the source, which are not always exact repeats. Equal values may be shown once.

B1: GAT-2 (Rattus norvegicus) (protein)
chain: MDNRVSGTTSNGETKPVCPVMEKVEEDGTLEREQWTNKMEFVLSVAGEIIGLGNVWRFPYLCYKNGGGAFFIPYLIFLFTCGIPVFFLETALGQYTNQGGITAWRKICPIFEGIGYASQMIVSLLNVYYIVVLAWALFYLFSSFTTDLPWGSCSHEWNTENCVEFQKTNNSLNVTSENATSPVIEFWERRVLKISDGIQHLGSLRWELVLCLLLAWIICYFCIWKGVKSTGKVVYFTATFPYLMLVVLLIRGVTLPGAAQGIQFYLYPNITRLWDPQVWMDAGTQIFFSFAICLGCLTALGSYNKYHNNCYRDCVALCILNSSTSFVAGFAIFSILGFMSQEQGVPISEVAESGPGLAFIAYPRAVVMLPFSPLWACCFFFMVVLLGLDSQFVCVESLVTALVDMYPRVFRKKNRREILILIVSVVSFFIGLIMLTEGGMYVFQLFDYYAASGMCLLFVAIFESLCVAWVYGASRFYDNIEDMIGYKPWPLIKYCWLFFTPAVCLATFLFSLIKYTPLTYNKKYTYPWWGDALGWLLALSSMVCIPAWSIYKLRTLKGPLRERLRQLVCPAEDLPQKSQPELTSPATPMTSLLRLTELESNC
B2: taurine transporter (rB16a) (Rattus norvegicus) (protein)
chain: MATKEKLQCLKDFHKDILKPSPGKSPGTRPEDEADGKPPQREKWSSKIDFVLSVAGGFVGLGNVWRFPYLCYKNGGGAFLIPYFIFLFGSGLPVFFLEVIIGQYTSEGGITCWEKICPLFSGIGYASIVIVSLLNVYYIVILAWATYYLFQSFQKDLPWAHCNHSWNTPQCMEDTLRRNESHWVSLSAANFTSPVIEFWERNVLSLSSGIDHPGSLKWDLALCLLLVWLVCFFCIWKGVRSTGKVVYFTATFPFAMLLVLLVRGLTLPGAGEGIKFYLYPNISRLEDPQVWIDAGTQIFFSYAICLGAMTSLGSYNKYKYNSYRDCMLLGCLNSGTSFVSGFAIFSILGFMAQEQGVDIADVAESGPGLAFIAYPKAVTMMPLPTFWSILFFIMLLLLGLDSQFVEVEGQITSLVDLYPSFLRKGYRREIFIAIVCSISYLLGLTMVTEGGMYVFQLFDYYAASGVCLLWVAFFECFVIAWIYGGDNLYDGIEDMIGYRPGPWMKYSWAVITPALCVGCFIFSLVKYVPLTYNKVYRYPDWAIGLGWGLALSSMVCIPLVIVILLCRTEGPLRVRIKYLITPREPNRWAVEREGATPFHSRATLMNGALMKPSHVIVETMM

Key:
[1] = substrate: NCCCC(=O)O; assay: cells, lysate or membranes; details: other: various concentrations of [3H]GABA, 30 seconds; pH 7.4; 37.0 °C
[2] = substrate: NCCS(=O)(=O)O; assay: cells, lysate or membranes; details: other: various concentrations of [3H]taurine, 30 seconds, pH 7.4
Procedure: Transient transfections of COS cells with the plasmid pEVJB-rB16a were carried out using DEAE-dextran with DMSO according to the method of Lopata et al. (58) with minor modifications. COS cells were grown (37° C., 5%CO2) in high glucose Dulbecco's modified Eagle medium supplemented with 10% bovine calf serum, 100 U/ml penicillin G, and 100 μg/ml streptomycin sulfate. Cells were routinely used two days after transfection for transport studies.
Plates were incubated at 37° C. for 10 minutes unless indicated otherwise, then washed rapidly 3× with ice cold HBS. Cells were solubilized with 0.05% sodium deoxycholate/0.1N NaOH), an aliquot was neutralized with 1N HCl, and radioactivity was determined by scintillation counting. Protein was quantified in an aliquot of the solubilized cells using a BIO-RAD protein assay kit, according to the manufacturer's directions.

Row | Protein | Km [1] | Km [2]
1 | B1 | 4 µM and 8 ± 3 µM | 
2 | B2 |  | 43 ± 6 µM
